Results reported in IntAct's records for PubMed 25888478.

B1: Protein interacting with Hsp90 1 (Saccharomyces cerevisiae), P38768 (parent)
chain: MADFLLRPIKQRHRNEDKYVSVDAADGSVSKIEPIADFVIKTKLLSANGPEKLQDGRKVFINVCHSPLVPKPEVDFNARIVFPLIIQNEWEIPIITSCYRMDHDKKGQECYVWDCCINSDCSRWICDDIQLREILVEWCLESCEIRDSVVLCRDRIAFPKMKKKGAELPALEVLNDELHQDYKAKMHKIIEEEAGDPMSILRGRNDDGDDNNDPDDGTLPPLFPIENKISGAKIEEIDKNEIAHRNLKQAPAPAPAPHEQQEDVPEYEVKMKRFKGAAYKLRILIENKAPNSKPDRFSPSYNFAENILYINGKLSIPLPRDIVVNAADIKIFHIRKERTLYIYI
partner: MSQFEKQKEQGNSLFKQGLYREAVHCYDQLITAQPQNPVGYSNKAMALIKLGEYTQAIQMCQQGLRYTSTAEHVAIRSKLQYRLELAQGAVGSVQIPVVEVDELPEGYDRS

Variants of: B1
Conditions: with tah1_yeast TAH1, P25638

Variant | effect of a mutation on the interaction
MADFLLRPIKQRHRNEDKYVSVDAADGSVSKIEPIADFVIKTKLLSANGPEKLQDGRKVFINVCHSPLVPKPEVDFNARIVFPLIIQNEWEIPIITSCYRMDHDKKGQECYVWDCCINSDCSRWICDDIQLREILVEWCLESCEIRDSVVLCRDRIAFPKMKKKGAELPALEVLNDELHQDYKAKMHKIIEEEAGDPMSILRGRNDDGDDNNDPDDGTLPPLFPIENKISGAKIEEIDKNEIAHRNLKQAPAPAPAPHEQQEDVPEYEVKMKRFKGAAYKLRILIENKAPNSKPDRFSPSYNFAESILYINGKLSIPLPRDIVVNAADIKIFHIRKERTLYIYI [N306S] | disrupting interaction
